Results published in patent US20220213201A1 (PHARMABCINE, published 2022).

B1: 4E2 monoclonal scFv phage (scFv)
chain: QVQLVQSGGGLIQPGGSLRLSCAASGFTFSDYAMHWVRQAPGKGLEWVALISFDGNNQYYADSVKGRFTISRDNSKNTIYLQMNSLRAEDTAVYYCTTDTMSGYDWEDAFDIWGQGTMITVSSDIQMTQSPSSLSASIGDRVTITCRASQSIGRWLAWYQQKPGKAPKLLIYAASSLQSGVPSRFSGSGSGTDFTLTISSLQPEDFATYYCQQSYSTPYTFGQGTKVEIKR
B2: anti-TIE2 antibody 3D6 (IgG) (antibody, V domains shown)
VH: QVQLVESGGGLVQPGGSLRLSCIGSGFTFSRYNINWVRQAPGKGLEWVSSISSSGRFIHYAGSVKGRFTVSRDNTKNSVSLQMNSLRAEDTAVYYCARDSPTQGPYYYYGMDVWGQGTTITVSS
VL: SYELTQPPSESVAPGKTATITCGGNKIGSKSVHWYQQKPGQAPLMVIYYDSDRPSGIPERFSGSNSGNTATLTISRVEVGDEADYYCQVWDSSSDRPVFGGGTKLTVLG
notes: also called 3D6 clone
B3: anti-TIE2 antibody 2F2 (IgG) (antibody, V domains shown)
VH: QVQLVESGGGLVQPGGSLRLSCAASGFTFSSYAMTWVRQAPGKGLEWVSRISGSGGSTNYADSVKGRFTISRDNSKNTLYLQMNSLRAEDTAVYYCARGGLHHGFDIWGQGTMVTVSS
VL: SYELTQPPSLSVAPGKTARITCDGDNIESKSVHWYQQKPGQAPVLVIYYDNDRPSGIPERFSGSNSGNTATLTISRVEAGDEADYYCQVWDTYTDQPVFGGGTKLTVLG
notes: also called 2F2 clone
B4: anti-TIE2 antibody 1A9 (IgG) (antibody, V domains shown)
VH: QMQLVQSEAEVKKPGASVKVSCKASGYTFNSYDIHWVRQAPGQGLEWMGVVNPPGGTGSTVYAQKFEDRLTLTTDMSTSTAYMELSSLRSEDTAVYYCARDYNRAPPTLDVWGQGTTITVSS
VL: NFMLTQPASVSGSPGQSITISCTGSSSDVGGYNYVSWYQQHPGKAPQLIIYDVTKRPSGVSNRFSGSKSGNSASLTISGLQAEDEADYYCSSYSSSTFYVFGTGTKVTVLG
notes: also called 1A9 clone
B5: 3D6 monoclonal scFv phage (scFv)
chain: QVQLVESGGGLVQPGGSLRLSCIGSGFTFSRYNINWVRQAPGKGLEWVSSISSSGRFIHYAGSVKGRFTVSRDNTKNSVSLQMNSLRAEDTAVYYCARDSPTQGPYYYYGMDVWGQGTTITVSSSYELTQPPSESVAPGKTATITCGGNKIGSKSVHWYQQKPGQAPLMVIYYDSDRPSGIPERFSGSNSGNTATLTISRVEVGDEADYYCQVWDSSSDRPVFGGGTKLTVLG
B6: 2F2 monoclonal scFv phage (scFv)
chain: QVQLVESGGGLVQPGGSLRLSCAASGFTFSSYAMTWVRQAPGKGLEWVSRISGSGGSTNYADSVKGRFTISRDNSKNTLYLQMNSLRAEDTAVYYCARGGLHHGFDIWGQGTMVTVSSSYELTQPPSLSVAPGKTARITCDGDNIESKSVHWYQQKPGQAPVLVIYYDNDRPSGIPERFSGSNSGNTATLTISRVEAGDEADYYCQVWDTYTDQPVFGGGTKLTVLG
B7: 1A9 monoclonal scFv phage (scFv)
chain: QMQLVQSEAEVKKPGASVKVSCKASGYTFNSYDIHWVRQAPGQGLEWMGVVNPPGGTGSTVYAQKFEDRLTLTTDMSTSTAYMELSSLRSEDTAVYYCARDYNRAPPTLDVWGQGTTITVSSNFMLTQPASVSGSPGQSITISCTGSSSDVGGYNYVSWYQQHPGKAPQLIIYDVTKRPSGVSNRFSGSKSGNSASLTISGLQAEDEADYYCSSYSSSTFYVFGTGTKVTVLG
B8: anti-TIE2 antibody 4E2 (IgG) (antibody, V domains shown)
VH: QVQLVQSGGGLIQPGGSLRLSCAASGFTFSDYAMHWVRQAPGKGLEWVALISFDGNNQYYADSVKGRFTISRDNSKNTIYLQMNSLRAEDTAVYYCTTDTMSGYDWEDAFDIWGQGTMITVSS
VL: DIQMTQSPSSLSASIGDRVTITCRASQSIGRWLAWYQQKPGKAPKLLIYAASSLQSGVPSRFSGSGSGTDFTLTISSLQPEDFATYYCQQSYSTPYTFGQGTKVEIKR
notes: also called 4E2 clone
B9: anti-TIE2 antibody 11F (IgG) (antibody, V domains shown)
VH: QVQLVESGGGVVQPGRSLRLSCSASGFSFSDHAMHWVRQAPGRGLEWVATVWPDGSNKYYVDSVNGRFSISRDNSKNTVSLQMNSLRAEDTAVYYCARDSGPISRGDLTYWGPGVLVTVSS
VL: NFMLTQPHSVSESPGKTVIISCTGSGGSIASNYVQWYQQRPGSAPTIVIYEDDQRPSGVPDRYSGSTDSSSNSASLTISGLRAEDEADYYCQSYDDTNVVFGGGTKLTVLG
notes: also called 11F antibody; No. 6

Experiments:
[1] = target: T1, mouse Tie2-his (Sino Biological, 51087-M08H) (mouse, UniProt Q02858 23-743); experiment: ELISA, scFv phage on mouse TIE2 antigen, HRP anti-M13 detection
T1 construct: Bought protein; also called mTIE2-his; mTie2-his; not shown: his tag
T1 sequence (Q02858 23-743 limits assumed, stated change not applied): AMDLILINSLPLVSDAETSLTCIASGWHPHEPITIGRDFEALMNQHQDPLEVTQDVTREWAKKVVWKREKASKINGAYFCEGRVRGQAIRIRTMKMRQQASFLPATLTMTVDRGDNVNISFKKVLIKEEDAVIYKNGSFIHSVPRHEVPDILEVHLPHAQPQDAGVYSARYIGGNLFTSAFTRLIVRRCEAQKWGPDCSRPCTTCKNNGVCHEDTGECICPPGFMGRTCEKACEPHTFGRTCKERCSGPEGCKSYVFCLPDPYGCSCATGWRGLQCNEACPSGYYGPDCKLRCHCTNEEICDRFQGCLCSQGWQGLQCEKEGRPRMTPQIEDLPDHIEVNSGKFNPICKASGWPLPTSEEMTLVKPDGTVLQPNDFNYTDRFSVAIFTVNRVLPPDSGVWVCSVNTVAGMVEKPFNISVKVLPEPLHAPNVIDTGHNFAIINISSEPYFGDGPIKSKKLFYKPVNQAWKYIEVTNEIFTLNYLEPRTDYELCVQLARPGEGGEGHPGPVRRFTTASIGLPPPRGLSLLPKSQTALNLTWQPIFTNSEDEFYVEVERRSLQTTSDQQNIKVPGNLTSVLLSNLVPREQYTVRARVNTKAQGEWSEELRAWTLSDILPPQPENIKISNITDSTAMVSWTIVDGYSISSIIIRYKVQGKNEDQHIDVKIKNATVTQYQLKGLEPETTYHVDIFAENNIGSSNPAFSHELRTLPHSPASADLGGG

[2] = target: T2, human TIE2-his (Sino Biological, 10700-H08H) (human, UniProt Q02763 23-745); experiment: ELISA, scFv phage on coated hTIE2-his, HRP anti-M13 detection
T2 construct: Bought protein; also called hTIE2-his; hTIE2; not shown: his tag
T2 sequence (Q02763 23-745 limits assumed): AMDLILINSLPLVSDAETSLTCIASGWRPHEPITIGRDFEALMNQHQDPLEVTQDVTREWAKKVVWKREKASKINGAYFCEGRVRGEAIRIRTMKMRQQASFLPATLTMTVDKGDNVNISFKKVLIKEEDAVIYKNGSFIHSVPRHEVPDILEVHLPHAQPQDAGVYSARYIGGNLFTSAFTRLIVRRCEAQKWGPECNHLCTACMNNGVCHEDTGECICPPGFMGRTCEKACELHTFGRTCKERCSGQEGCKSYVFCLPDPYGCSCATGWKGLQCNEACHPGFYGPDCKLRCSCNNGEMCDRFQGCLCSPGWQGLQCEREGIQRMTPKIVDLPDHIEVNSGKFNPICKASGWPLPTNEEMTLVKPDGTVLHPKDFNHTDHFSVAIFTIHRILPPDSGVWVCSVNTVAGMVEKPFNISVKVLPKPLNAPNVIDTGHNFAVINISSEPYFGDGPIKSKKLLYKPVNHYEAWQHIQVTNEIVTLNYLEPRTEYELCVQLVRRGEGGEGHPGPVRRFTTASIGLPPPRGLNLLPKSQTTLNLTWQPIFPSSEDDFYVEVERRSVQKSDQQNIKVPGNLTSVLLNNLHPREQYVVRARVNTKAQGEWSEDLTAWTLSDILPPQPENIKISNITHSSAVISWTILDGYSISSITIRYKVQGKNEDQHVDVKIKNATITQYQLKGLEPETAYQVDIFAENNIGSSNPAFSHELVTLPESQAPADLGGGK

[3] = target: T3, mouse TIE2 overexpressed on CHO-K1 cells (mouse, UniProt Q02858 23-1122); experiment: flow cytometry on mTIE2/CHO-K1 cells, PE anti-human IgG-Fc secondary
T3 construct: whole, on cells; also called mTIE2/CHO-K1
T3 sequence (Q02858 23-1122): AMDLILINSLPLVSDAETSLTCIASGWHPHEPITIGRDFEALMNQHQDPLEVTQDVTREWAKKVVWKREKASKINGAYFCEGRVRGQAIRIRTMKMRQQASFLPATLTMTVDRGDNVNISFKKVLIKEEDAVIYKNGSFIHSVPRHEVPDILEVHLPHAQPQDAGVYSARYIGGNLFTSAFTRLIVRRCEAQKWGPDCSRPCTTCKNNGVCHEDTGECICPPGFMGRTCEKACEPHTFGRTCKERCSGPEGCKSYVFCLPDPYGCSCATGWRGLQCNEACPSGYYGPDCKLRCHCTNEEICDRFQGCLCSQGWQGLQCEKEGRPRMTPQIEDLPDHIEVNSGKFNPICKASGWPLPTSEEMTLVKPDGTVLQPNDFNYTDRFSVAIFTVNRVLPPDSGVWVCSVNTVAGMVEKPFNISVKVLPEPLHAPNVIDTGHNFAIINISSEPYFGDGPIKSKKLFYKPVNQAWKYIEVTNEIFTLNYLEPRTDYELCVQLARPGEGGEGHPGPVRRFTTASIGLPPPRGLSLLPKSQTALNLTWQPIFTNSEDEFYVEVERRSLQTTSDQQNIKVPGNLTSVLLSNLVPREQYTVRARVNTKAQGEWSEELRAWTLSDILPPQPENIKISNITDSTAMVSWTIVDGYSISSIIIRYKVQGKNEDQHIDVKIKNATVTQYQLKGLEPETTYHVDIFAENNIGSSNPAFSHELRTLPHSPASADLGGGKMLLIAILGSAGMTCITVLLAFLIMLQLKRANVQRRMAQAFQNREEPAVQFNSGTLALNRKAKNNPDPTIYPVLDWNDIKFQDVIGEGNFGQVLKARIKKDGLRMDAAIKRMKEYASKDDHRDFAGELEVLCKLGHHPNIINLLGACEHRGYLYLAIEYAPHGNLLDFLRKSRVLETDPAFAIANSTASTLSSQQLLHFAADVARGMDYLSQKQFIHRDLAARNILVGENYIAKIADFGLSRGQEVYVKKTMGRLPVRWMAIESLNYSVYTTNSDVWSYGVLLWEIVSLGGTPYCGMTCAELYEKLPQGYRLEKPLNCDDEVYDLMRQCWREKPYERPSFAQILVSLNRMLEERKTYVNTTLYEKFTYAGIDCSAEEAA
Description: (§1) In order to determine the binding to cell-expressing TIE2, the binding to the self-established human/mouse TIE2 overexpressing CHO-K1 cell lines (hTIE2/CHO-K1, mTIE2/CHO-K1) was measured using flow cytometry. Each cell line was maintained and cultured, hTIE2 CHO-K1 was washed with PBS, 5 mM EDTA was added thereto to obtain a cell suspension, and each cell was recovered through centrifugation. A cell suspension of 5×10⁶ cells/mL was prepared using FACS-dedicated buffer (PBS containing 2% FBS, 0.05% sodium azide), and 100 μL of the cell suspension was dispensed into each tube. 100 μL of 2 μg/mL clones was added to each test tube and allowed to stand at 4° C. for 30 minutes to induce cell binding. The cells were washed with 2 mL of FACS buffer, 100 μL of a secondary antibody dilution (1/500, PE-conjugated anti-human IgG-Fc polyclonal antibody fragment, *A80-248PE, Bethyl Laboratories Inc. US) was added thereto, and the resulting mixture was allowed to stand at 4° C. for 20 minutes to perform fluorescent labeling. The cells were washed with 2 mL of FACS buffer and then suspended in 200 μL of FACS buffer. […]

[4] = target: T2, human TIE2-his (Sino Biological, …); experiment: ELISA, purified IgG on coated hTIE2-his (1 µg/mL), HRP anti-human detection
Description: (§2) Whether or not the binding of TIE2 to the ScFv phage clone was maintained in IgG was determined through ELISA. 1 μg/ml of Ag (hTIE2-his: Sino Biological, 10700-H08H; mTIE2-his: Sino Biological, 51087-M08H) was plated at 100 μl/well onto a 96-well plate and incubated at 4° C. overnight. The next day, the cells grown the day before were centrifuged at 3,000 rpm for 10 minutes and stored at 4° C. The plated Ag was washed 3 times with 0.1% TBST and 200 μl of 2% BSA blocking buffer was added thereto, followed by incubation at 25° C. for 2 hours. After blocking was completed, the resulting product was washed 3 times with 0.1% TBST. […] After phage binding, the resulting product was washed 3 times with 0.1% TBST and 100 μl of HRP-conjugated goat anti-human Ab (1:3000, Sino, 11973-MM05) was added thereto, followed by incubation at 25° C. for 1 hour. After reaction, the resulting product was washed 3 times with 0.1% TBST, 100 μl of TMB (BD TMB substrate reagent set * 555214) was added thereto, color was developed for 3 to 5 minutes, 50 μl of a stop solution was added thereto, and then an assay was performed using an ELISA reader.

[5] = target: T4, human TIE2 overexpressed on CHO-K1 cells (human, UniProt Q02763 23-1124); experiment: flow cytometry on hTIE2/CHO-K1 cells, 2 µg/mL clone, PE anti-human IgG-Fc secondary
T4 construct: whole, on cells; also called hTIE2/CHO-K1; hTIE2 CHO-K1
T4 sequence (Q02763 23-1124): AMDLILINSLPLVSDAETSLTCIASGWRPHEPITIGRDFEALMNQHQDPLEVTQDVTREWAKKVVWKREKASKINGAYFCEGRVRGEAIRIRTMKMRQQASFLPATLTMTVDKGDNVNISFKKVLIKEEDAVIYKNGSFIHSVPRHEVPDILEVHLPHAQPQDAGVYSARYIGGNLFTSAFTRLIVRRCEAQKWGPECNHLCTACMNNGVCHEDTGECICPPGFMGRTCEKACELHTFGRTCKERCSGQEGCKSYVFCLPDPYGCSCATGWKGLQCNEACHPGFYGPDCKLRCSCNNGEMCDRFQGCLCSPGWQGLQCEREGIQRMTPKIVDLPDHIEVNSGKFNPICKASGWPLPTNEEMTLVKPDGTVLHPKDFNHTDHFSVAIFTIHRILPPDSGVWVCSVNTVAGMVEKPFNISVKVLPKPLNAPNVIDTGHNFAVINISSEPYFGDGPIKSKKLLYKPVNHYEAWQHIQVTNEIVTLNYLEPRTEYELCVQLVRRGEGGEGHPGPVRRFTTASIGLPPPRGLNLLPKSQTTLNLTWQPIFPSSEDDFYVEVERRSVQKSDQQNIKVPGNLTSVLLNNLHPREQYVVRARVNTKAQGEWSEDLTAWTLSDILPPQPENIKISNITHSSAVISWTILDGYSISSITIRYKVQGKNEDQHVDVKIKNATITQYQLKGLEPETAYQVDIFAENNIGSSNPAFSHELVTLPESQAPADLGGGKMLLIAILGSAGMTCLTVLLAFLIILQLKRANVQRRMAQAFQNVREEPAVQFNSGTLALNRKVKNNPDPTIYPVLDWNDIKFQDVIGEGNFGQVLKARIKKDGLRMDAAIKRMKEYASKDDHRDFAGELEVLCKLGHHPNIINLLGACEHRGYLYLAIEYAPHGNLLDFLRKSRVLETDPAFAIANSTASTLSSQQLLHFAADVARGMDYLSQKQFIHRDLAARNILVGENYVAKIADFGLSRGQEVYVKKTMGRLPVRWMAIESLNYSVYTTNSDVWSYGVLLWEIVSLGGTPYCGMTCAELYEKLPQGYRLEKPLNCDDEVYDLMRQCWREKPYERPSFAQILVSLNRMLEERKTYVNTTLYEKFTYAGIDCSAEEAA
Description: as §1

[6] = target: T1, mouse Tie2-his (Sino Biological, …); experiment: ELISA, purified IgG on coated mTIE2-his (1 µg/mL), HRP anti-human detection
Description: as §2

[7] = target: T2, human TIE2-his (Sino Biological, …); experiment: Octet (BLI), antibody fixed on the biosensor, hTIE2-his in solution
Description: (§3) The anti-TIE2 antibody was fixed at the biosensor and tested according to the manufacturer's manual. The binding kinetics at each concentration of human TIE2 and mouse Tie2 were measured to calculate the binding rate constant (kₒₙ), dissociation rate constant (koff), and binding constant (KD) (Table 4).

[8] = target: T1, mouse Tie2-his (Sino Biological, …); experiment: Octet (BLI), antibody fixed on the biosensor, mTie2-His in solution
Description: as §3

Row | Binder | Mouse ELISA [1] | Human ELISA [2] | binding result [6] | Kd [7] [nM] | koff [7] [s⁻¹] | kon [7] [M⁻¹ s⁻¹] | further results
1 | B1 | 0.4 | 1.2 | – | – | – | – | –
2 | B2 | – | – | no binding | – | – | – | binding result [3]: no binding; binding result [4]: binds; binding result [5]: binds
3 | B3 | – | – | no binding | 0.794 | 0.000116 | 146000 | binding result [3]: no binding
4 | B4 | – | – | no binding | – | – | – | binding result [4]: binds; binding result [5]: binds
5 | B5 | 0.1 | 2.1 | – | – | – | – | –
6 | B6 | 0.1 | 1.9 | – | – | – | – | –
7 | B7 | 0 | 2.4 | – | – | – | – | –
8 | B8 | – | – | – | < 0.001 | < 1e-07 | 106000 | Kd [8]: 13.8 nM; koff [8]: 0.00291 s⁻¹; kon [8]: 212000 M⁻¹ s⁻¹
9 | B9 | – | – | – | 2.76 | 0.000152 | 55300 | –
